{"source": "paper PMC5753150", "about": "(Beilstein Journal of Organic Chemistry, 2017)", "origin": "cited, not measured here", "system": "dipeptidyl peptidase", "conditions": "wild-type peptide; cited from earlier work", "source_text": "Several laboratories have focused on introducing highly fluorinated analogues of hydrophobic amino acids and have studied the effects on stability of the resulting proteins towards thermal and chemical denaturation. These studies prompted further investigation into the extent to which fluorinated amino acids stabilize peptides and proteins against proteolytic degradation in particular. Meng and Kumar reported that the incorporation of 5,5,5,5’,5’,5’-hexafluoroleucine (HfLeu) into the antimicrobial peptides magainin 2 amide and buforin enhanced their resistance towards proteolyt ..."}
{"substance": "glucagon-like-peptide-1 [GLP-1]", "values": [{"measurement": "Time of rapid digestion by the serine protease dipeptidyl peptidase", "value": "≈ 2 min"}]}
